Laboratory results as given in patent US20190062438A1 (CSL, published 2019).
Changes are numbered by the printed parent chain.

Columns and labels:
[1] = target: T1, soluble Homo sapiens CD131 comprising a C-terminal 6xHis tag (human, UniProt P32927 17-438); assay: SPR, kinetics, Fab over captured shCD131
T1 construct: truncated after Ser438, C-terminal 6xHis; also called shCD131; shβc
T1 sequence: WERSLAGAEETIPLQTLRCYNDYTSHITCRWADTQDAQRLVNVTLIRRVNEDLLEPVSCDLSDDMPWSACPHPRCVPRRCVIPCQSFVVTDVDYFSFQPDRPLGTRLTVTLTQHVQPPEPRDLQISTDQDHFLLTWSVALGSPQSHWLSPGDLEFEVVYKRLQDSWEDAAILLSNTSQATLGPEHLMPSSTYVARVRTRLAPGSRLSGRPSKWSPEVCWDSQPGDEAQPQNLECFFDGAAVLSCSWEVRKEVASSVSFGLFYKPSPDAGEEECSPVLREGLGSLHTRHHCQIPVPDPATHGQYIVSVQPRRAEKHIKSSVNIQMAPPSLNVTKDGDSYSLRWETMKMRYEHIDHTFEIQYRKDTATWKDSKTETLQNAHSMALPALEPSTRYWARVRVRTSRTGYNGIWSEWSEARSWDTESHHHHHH

[2] = target: T1, soluble Homo sapiens CD131 comprising a …; assay: SPR, Fab over captured shCD131
Method: Binding kinetics were measured using SPR with a BIAcore™ A-100 instrument (GE Healthcare Life Sciences). An anti-C-terminal Hexa-His antibody (3H3) was immobilized on spots 1, 2, 4 and 5 of each flow cell of a CM-5 sensor chip (GE Healthcare Life Sciences) using amine-coupling chemistry (116). […] As shβc is a dimer, kinetics assays were performed with shβc captured on the sensor surface, and purified Fab injected as the analyte. Avidity effects were avoided by the use of Fab rather than whole IgG.
shCD131 was captured on spots 1 and 5 of each flow cell for 2 minutes at a concentration of 0.4 μg/ml. […] For some analysis purified Fab was injected over each flow cell for 3 minutes and dissociation was monitored for a further 10 minutes. Regeneration of the surface was performed after each cycle with a 40 second injection of 25 mM glycine, pH 2.0. The analysis was performed with Fabs at several concentrations between 100 and 0.31 nM, with each concentration analyzed twice and in random order. The analysis was performed at a flow rate of 30 μl/min in HBS-EP buffer (10 mM Hepes, 150 mM NaCl, 3 mM EDTA, 0.005% Tween 20, pH 7.4) at 37° C. Responses from spots 2 and 4 of each flow cell, (in which shβc was not captured, but otherwise treated identically), were subtracted from those of spots 1 and 5 respectively to produce reference subtracted data. Reference subtracted responses from a blank injection comprising buffer alone were subtracted from the resultant sensorgrams to produce double referenced data suitable for kinetic analysis. Double-referenced sensorgrams were fitted using non-linear regression to a model describing 1:1 kinetics, including a term for mass transport limitation. The Rₘₐₓ value was fitted locally to account for slight deviations in the level of sCD131 captured, with association rate (kₐ), dissociation rate (kd) and equilibrium dissociation constant (KD) fitted globally.

[3] = target: T2, shCD131 T106A (human, UniProt P32927 17-438); assay: SPR, Fab over captured mutant
T2 construct: C-terminal 6xHis
T2 sequence: T1 sequence with T90A
Method: For some analysis purified Fab was injected over each flow cell for 3 minutes and dissociation was monitored for a further 10 minutes. Regeneration of the surface was performed after each cycle with a 40 second injection of 25 mM glycine, pH 2.0. The analysis was performed with Fabs at several concentrations between 100 and 0.31 nM, with each concentration analyzed twice and in random order. The analysis was performed at a flow rate of 30 μl/min in HBS-EP buffer (10 mM Hepes, 150 mM NaCl, 3 mM EDTA, 0.005% Tween 20, pH 7.4) at 37° C. Responses from spots 2 and 4 of each flow cell, (in which shβc was not captured, but otherwise treated identically), were subtracted from those of spots 1 and 5 respectively to produce reference subtracted data. Reference subtracted responses from a blank injection comprising buffer alone were subtracted from the resultant sensorgrams to produce double referenced data suitable for kinetic analysis. […]
Mapping of the shCD131 epitope was performed by measurement of the affinity of Fabs for various alanine point mutants of shCD131 essentially as described above, with the following exceptions. […] For kinetic analysis, purified recombinant Fabs were injected for 2 minutes, and dissociation was monitored for a further 2 minutes. […] Kinetic parameters were determined as described above.

[4] = target: shCD131 alanine mutants of Ser102, Val104 and Arg364; assay: SPR, Fab over captured mutant

B1: 9A2 Fab (Fab, V domains shown)
VH: EVQLLESGGGLVQPGGSLRLSCAASGFTFSHYHMLWVRQAPGKGLEWVSSIRSSGGFTYYADSVKGRFTISRDNSKNTLYLQMNSLRAEDTAVYYCARFYDSFFDIWGQGTMVTVSS
VL: DIQMTQSPSSVSASVGDRVTITCRASQGISSWLAWYQQKPGKAPKLLIYAASSLQSGVPSRFSGSGSGTDFTLTISSLQPEDFATYYCQQANSFPITFGQGTRLEIKR
notes: also called recombinant Fab of 9A2
B1 gave a Kd [1] of 49 nM, a Kd [2] of 49 nM and a koff [2] of 0.096 s⁻¹. The kon [2] was 2e+06 M⁻¹ s⁻¹, the “fold increase in affinity relative to WT shCD131” value [3] was about 10 fold and the fold reduction of binding relative to WT shCD131 [4] was 3 to 7 fold.
